Measured values from US20200115443A1 (TRICAN BIOTECHNOLOGY, published 2020).

How the values were obtained:
[1] = target: T1, complement C5 (UniProt P01031 19-1676, limits assumed); assay: cell-based or functional assay
[2] = target: T2, VEGF-A (human, UniProt P15692-4 27-191, limits assumed); assay: cell-based or functional assay
[3] = target: T2, VEGF-A; assay: direct ELISA, VEGF-A coated 100 ng/well, HRP anti-human Fc detection
[4] = target: T1, complement C5; assay: direct ELISA, C5 coated 100 ng/well, HRP anti-human Fc detection

T2 sequence (P15692 other isoform, or with tags, fused parts or gaps limits assumed): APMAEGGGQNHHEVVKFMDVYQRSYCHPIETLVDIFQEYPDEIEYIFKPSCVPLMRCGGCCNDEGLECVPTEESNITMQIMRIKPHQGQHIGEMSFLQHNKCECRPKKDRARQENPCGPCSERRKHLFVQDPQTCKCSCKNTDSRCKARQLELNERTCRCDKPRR

- IC50, inhibition of VEGF-dependent HUVEC proliferation (MTS) [2]: 0.195 nM
- EC50 [3]: 0.288 nM
- EC50 [4]: 3.57 nM
B1: bi-functional fusion protein C5V (other)
chain 1: QVQLVQSGAEVKKPGASVKVSCKASGYIFSNYWIQWVRQAPGQGLEWMGEILPGSGSTEYTENFKDRVTMTRDTSTSTVYMELSSLRSEDTAVYYCARYFFGSSPNWYFDVWGQGTLVTVSSASTKGPSVFPLAPCSRSTSESTAALGCLVKDYFPEPVTVSWNSGALTSGVHTFPAVLQSSGLYSLSSVVTVPSSNFGTQTYTCNVDHKPSNTKVDKTVERKCCVECPPCPAPPVAGPSVFLFPPKPKDTLMISRTPEVTCVVVDVSQEDPEVQFNWYVDGVEVHNAKTKPREEQFNSTYRVVSVLTVLHQDWLNGKEYKCKVSNKGLPSSIEKTISKAKGQPREPQVYTLPPSQEEMTKNQVSLTCLVKGFYPSDIAVEWESNGQPENNYKTTPPVLDSDGSFFLYSRLTVDKSRWQEGNVFSCSVMHEALHNHYTQKSLSLSLGGGGSGGGGSGGGGSSDTGRPFVEMYSEIPEIIHMTEGRELVIPCRVTSPNITVTLKKFPLDTLIPDGKRIIWDSRKGFIISNATYKEIGLLTCEATVNGHLYKTNYLTHRQTNTIIDVVLSPSHGIELSVGEKLVLNCTARTELNVGIDFNWEYPSSKHQHKKLVNRDLKTQSGSEMKKFLSTLTIDGVTRSDQGLYTCAASSGLMTKKNSTFVRVHEK
chain 2: DIQMTQSPSSLSASVGDRVTITCGASENIYGALNWYQQKPGKAPKLLIYGATNLADGVPSRFSGSGSGTDFTLTISSLQPEDFATYYCQNVLNTPLTFGQGTKVEIKRTVAAPSVFIFPPSDEQLKSGTASVVCLLNNFYPREAKVQWKVDNALQSGNSQESVTEQDSKDSTYSLSSTLTLSKADYEKHKVYACEVTHQGLSSPVTKSFNRGEC
- IC50, inhibition of the alternative complement pathway (hemolysis of rabbit erythrocytes by normal human serum) [1]: 25.3 nM
